Measurements as given in IntAct's records for PubMed 15358143.

Molecular target: ppia_human PPIA (UniProt P62937)
Sequence (P62937 whole entry, looked up): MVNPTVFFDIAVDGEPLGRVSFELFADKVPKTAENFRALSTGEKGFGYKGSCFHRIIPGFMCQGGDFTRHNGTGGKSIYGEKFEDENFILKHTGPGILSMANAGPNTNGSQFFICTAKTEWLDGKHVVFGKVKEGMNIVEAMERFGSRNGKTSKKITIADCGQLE

Nucleoprotein (Human SARS coronavirus), P59595 W302A
effect of a mutation on the interaction: decreasing interaction strength

Nucleoprotein (Human SARS coronavirus), P59595 Q307A
effect of a mutation on the interaction: decreasing interaction strength

Nucleoprotein (Human SARS coronavirus), P59595 Q307D
effect of a mutation on the interaction: decreasing interaction strength

Nucleoprotein (Human SARS coronavirus), P59595 I305A
effect of a mutation on the interaction: decreasing interaction strength
